This passage reports EC50 results from US20240084005A1 (ALLAKOS, published 2024).

Experiment [1] deals with T1, Siglec-6 (antigen of Example 8) (human, UniProt O43699 27-347, limits assumed). The experiment in a line: Siglec-6 binding ELISA after 2 weeks of forced degradation (elevated temperature, low pH). How it is done: AK20 and AK21 were further evaluated in a forced degradation stability study. AK20 and AK21 (both using a wild-type human IgG1 Fc region with normal fucosylation) were incubated for 2 weeks at elevated temperatures and low pH followed by assessment of activity using a Siglec-6 binding ELISA.
T1 sequence (O43699 27-347 limits assumed): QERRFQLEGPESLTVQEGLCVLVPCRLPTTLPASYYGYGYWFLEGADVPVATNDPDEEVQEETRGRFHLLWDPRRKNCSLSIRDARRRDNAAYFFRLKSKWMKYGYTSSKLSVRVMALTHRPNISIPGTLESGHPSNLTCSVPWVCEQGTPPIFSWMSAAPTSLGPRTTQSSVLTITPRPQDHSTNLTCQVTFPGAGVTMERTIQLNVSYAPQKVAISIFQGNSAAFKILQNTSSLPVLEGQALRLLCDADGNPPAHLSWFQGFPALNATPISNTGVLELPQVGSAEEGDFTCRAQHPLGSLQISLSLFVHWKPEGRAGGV
(ELISA stands for enzyme-linked immunosorbent assay.)

The target of experiment [2] is T1, Siglec-6 (antigen of Example 8). The experiment in a line: Siglec-6 binding ELISA after 1 week of forced degradation (elevated temperature, low pH); 1 week of forced degradation (elevated temperatures and low pH).
Experiment [3] has the same target. Nature of the experiment: Siglec-6 binding ELISA after 1 week of forced degradation (elevated temperature, low pH).

B1: AK20 (wild-type human IgG1 Fc) (antibody, V domains shown)
VH: QVQLQESGPGLVKPSETLSLTCTVSGFSLTSYGVSWIRQPPGKGLEWIGVIWHDGSTSYHPSLKSRVTISRDTSKNQVSLKLSSVTAADTAVYYCASDGYSGTFAYWGQGTLVTVSS
VL: QIVVTQSPATLSLSPGERATLSCTASSSVSSSYLHWYQQKPGQAPRLLIYSTSILASGIPARFSGSGSGTDFTLTISSLQPEDFAVYYCHQYHRSPYTFGQGTKLEIK
notes: Tested after forced degradation
Take B1: the EC50 (as a rule, the concentration giving half of the maximal effect) in experiment [1] was found to be 6.4 ng/mL; in experiment [2], 6.5 ng/mL.

B2: AK21 (wild-type human IgG1 Fc) (antibody, V domains shown)
VH: QVQLQESGPGLVKPSETLSLTCTVSGFSLSSYGVSWIRQPPGKGLEWIGVIWHDGSTNYNPSLKSRVTISRDTSKNQVSLKLSSVTAADTAVYYCASDGYSGTFAYWGQGTLVTVSS
VL: QIVVTQSPATLSLSPGERATLSCTASSSVSSSYLHWYQQKPGQAPRLLIYSTSILASGIPARFSGSGSGTDFTLTISSLQPEDFAVYYCHQYHRSPYTFGQGTKLEIK
notes: as for B1
Turning to B2, the half-maximal effective concentration (EC50) in experiment [3] came out at 9.1 ng/mL; in experiment [1], 9.3 ng/mL.
